Experimental findings from patent EP4692126A1 (Sound Biopharmaceuticals Co. Ltd., dated 2026) are described below.

Changes are numbered by the printed parent chain.

The target in test [1] is T1, mouse 5T4 antigen (TPBG-His, mouse) (mouse, UniProt Q9Z0L0 32-361, limits assumed).
T1 construct: One of the '3 different species of TPBG-His' coated in the cross reactivity ELISA; also called mouse TPBG-His; not shown: His tag
T1 sequence (looked up): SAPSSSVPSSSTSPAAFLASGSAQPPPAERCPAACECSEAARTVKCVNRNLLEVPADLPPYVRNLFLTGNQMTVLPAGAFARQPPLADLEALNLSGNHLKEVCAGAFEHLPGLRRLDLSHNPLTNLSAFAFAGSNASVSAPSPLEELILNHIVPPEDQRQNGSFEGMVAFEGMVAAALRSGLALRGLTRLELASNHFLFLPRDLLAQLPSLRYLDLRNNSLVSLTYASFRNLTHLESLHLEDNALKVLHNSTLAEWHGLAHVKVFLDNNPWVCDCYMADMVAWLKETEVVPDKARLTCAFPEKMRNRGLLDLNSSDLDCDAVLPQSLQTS
Kind of test: ELISA, TPBG-His coated at 1 ug/ml. For orientation: In an ELISA, binding on a coated surface is turned into a signal by an enzyme label.

Test [2] has as its target T2, TPBG-His (UniProt Q13641 32-355, limits assumed).
T2 construct: probably the human protein, the same as m24; also called TPBG-His antigen; TPBG-His protein; not shown: His tag
T2 sequence (looked up): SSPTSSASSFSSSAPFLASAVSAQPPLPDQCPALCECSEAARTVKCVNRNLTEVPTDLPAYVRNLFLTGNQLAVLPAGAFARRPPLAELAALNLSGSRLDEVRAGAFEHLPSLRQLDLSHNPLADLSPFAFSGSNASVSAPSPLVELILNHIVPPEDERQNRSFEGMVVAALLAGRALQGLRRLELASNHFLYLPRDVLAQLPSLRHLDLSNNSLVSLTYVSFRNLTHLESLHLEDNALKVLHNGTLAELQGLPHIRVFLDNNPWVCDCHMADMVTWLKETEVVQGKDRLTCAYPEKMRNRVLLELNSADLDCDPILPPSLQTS
Kind of test: ELISA, TPBG-His coated at 1 ug/ml, anti-human IgG Fc HRP detection.

For test [3], the target named is T2, TPBG-His. Put plainly: SPR (Biacore), TPBG-His amine-coupled to CM5, antibody as analyte, 1:1 model. For orientation: SPR reads the build-up and loss of mass on a sensor chip optically.
The target of test [4] is T2, TPBG-His. Put plainly: SPR (Biacore 8K), antibody captured on anti-human antibody CM5 chip, TPBG-His 300 nM, 1:1 model.
A further test deals with T3, 5T4 EDC-Fc (UniProt Q13641 32-355).
T3 construct: domain: EDC; Printed with molecular weight 65-120 kD; not shown: Fc part
T3 sequence (looked up): T2 sequence (looked up)
Put plainly: SPR (Biacore), 5T4 EDC-Fc amine-coupled to CM5, antibody as analyte, 1:2 model.

B1: hB5-2-10 (antibody, human IgG1, kappa)
heavy: not shown
light: DIQMTQSPSSLSASVGDRVTISCRASQDISNYLNWYQQKPGKVPKLLIYHTSILHSGVPSRFSGSGSGTDYSLTISSLQPEDVATYFCQQGDTVPLTFGGGTKVEIKRTVAAPSVFIFPPSDEQLKSGTASVVCLLNNFYPREAKVQWKVDNALQSGNSQESVTEQDSKDSTYSLSSTLTLSKADYEKHKVYACEVTHQGLSSPVTKSFNRGEC
notes: Humanized IgG1 kappa; also called humanized antibody hB5-2-10
In general, EC50 refers to the concentration that produces a half-maximal response. The low end stands for greater potency, the high end for weaker potency. What is called Kd is the concentration at which binding is half-saturated. A higher Kd goes with lower affinity. As usually defined, the koff is the rate constant with which the complex falls apart. The term kon denotes the second-order rate constant of association. The low end stands for slow association, the high end for fast association. On to B1, for which, in test [1], the binding result was “no binding (tested: highest concentration tested 20000 ng/ml)”. Besides, the EC50 in the test with TPBG-His [2] came out at 2.8 ng/mL. In the test with TPBG-His [3], this molecule yielded an equilibrium dissociation constant (Kd) of 2.92 nM, a koff of 0.000627 s⁻¹ and a kon of 215000 M⁻¹ s⁻¹. In the test with TPBG-His [4], this molecule came in with a Kd of 2.31 nM, a koff of 0.000487 s⁻¹ and a kon of 211000 M⁻¹ s⁻¹.

B2: hB5-2-20 (antibody, human IgG1, kappa)
heavy: not shown
light: B1 light with V43A, V83F
notes: Humanized IgG1 kappa
Take B2: in the test with TPBG-His [4], the Kd came to 0.95 nM, the koff worked out at 0.000302 s⁻¹ and the kon was found to be 318000 M⁻¹ s⁻¹.

B3: hB5-2-19 (antibody, human IgG1, kappa)
heavy: not shown
light: B1 light with S7T, P8T, Y36F, V43A, L46S, R61K, V83F
notes: Humanized IgG1 kappa
In the test with TPBG-His [4], B3 yielded a Kd of 0.88 nM, a koff of 0.000348 s⁻¹ and an association rate constant (kon) of 396000 M⁻¹ s⁻¹.

B4: antibody B5 (antibody, V domains shown)
VH: EVQLVESGGGLVKPGGSLKLSCAASGFTFRNYAMSWVRQSPDKRLEWVAEISTGGSYTYYPDTVTGRFTISRDNAKNTLYLEMSSLRSEDTAMYYCAFYYYGSSYSMDYWGQGTSVTVSS
VL: DIQMTQTTSSLSASLGDRVTISCRASQDISNYLNWYQQKPDGTVKLLIYHTSILHSGVPSRFSGSGSGTDYSLTISNLEQEDIATYFCQQGDTVPLTFGAGTKLELK
notes: Monoclonal antibody from hybridoma of immunized BALB/c mice
In the test with 5T4 EDC-Fc, B4 had a Kd of 0.018 nM, a koff of 1.45e-05 s⁻¹ and a kon of 803000 M⁻¹ s⁻¹.
